Results as given in IntAct's records for PubMed 15660133.

B1: Protein phosphatase Slingshot homolog 1 (Homo sapiens), Q8WYL5 (parent)
chain: MALVTLQRSPTPSAASSSASNSELEAGSEEDRKLNLSLSESFFMVKGAALFLQQGSSPQGQRSLQHPHKHAGDLPQHLQVMINLLRCEDRIKLAVRLESAWADRVRYMVVVYSSGRQDTEENILLGVDFSSKESKSCTIGMVLRLWSDTKIHLDGDGGFSVSTAGRMHIFKPVSVQAMWSALQVLHKACEVARRHNYFPGGVALIWATYYESCISSEQSCINEWNAMQDLESTRPDSPALFVDKPTEGERTERLIKAKLRSIMMSQDLENVTSKEIRNELEKQMNCNLKELKEFIDNEMLLILGQMDKPSLIFDHLYLGSEWNASNLEELQGSGVDYILNVTREIDNFFPGLFAYHNIRVYDEETTDLLAHWNEAYHFINKAKRNHSKCLVHCKMGVSRSASTVIAYAMKEFGWPLEKAYNYVKQKRSITRPNAGFMRQLSEYEGILDASKQRHNKLWRQQTDSSLQQPVDDPAGPGDFLPETPDGTPESQLPFLDDAAQPGLGPPLPCCFRRLSDPLLPSPEDETGSLVHLEDPEREALLEEAAPPAEVHRPARQPQQGSGLCEKDVKKKLEFGSPKGRSGSLLQVEETEREEGLGAGRWGQLPTQLDQNLLNSENLNNNSKRSCPNGMEDDAIFGILNKVKPSYKSCADCMYPTASGAPEASRERCEDPNAPAICTQPAFLPHITSSPVAHLASRSRVPEKPASGPTEPPPFLPPAGSRRADTSGPGAGAALEPPASLLEPSRETPKVLPKSLLLKNSHCDKNPPSTEVVIKEESSPKKDMKPAKDLRLLFSNESEKPTTNSYLMQHQESIIQLQKAGLVRKHTKELERLKSVPADPAPPSRDGPASRLEASIPEESQDPAALHELGPLVMPSQAGSDEKSEAAPASLEGGSLKSPPPFFYRLDHTSSFSKDFLKTICYTPTSSSMSSNLTRSSSSDSIHSVRGKPGLVKQRTQEIETRLRLAGLTVSSPLKRSHSLAKLGSLTFSTEDLSSEADPSTVADSQDTTLSESSFLHEPQGTPRDPAATSKPSGKPAPENLKSPSWMSKS

Variants of: B1
Settings: with limk1_human LIMK1, P53667
Sequence of limk1_human LIMK1, P53667 (P53667 whole entry, looked up): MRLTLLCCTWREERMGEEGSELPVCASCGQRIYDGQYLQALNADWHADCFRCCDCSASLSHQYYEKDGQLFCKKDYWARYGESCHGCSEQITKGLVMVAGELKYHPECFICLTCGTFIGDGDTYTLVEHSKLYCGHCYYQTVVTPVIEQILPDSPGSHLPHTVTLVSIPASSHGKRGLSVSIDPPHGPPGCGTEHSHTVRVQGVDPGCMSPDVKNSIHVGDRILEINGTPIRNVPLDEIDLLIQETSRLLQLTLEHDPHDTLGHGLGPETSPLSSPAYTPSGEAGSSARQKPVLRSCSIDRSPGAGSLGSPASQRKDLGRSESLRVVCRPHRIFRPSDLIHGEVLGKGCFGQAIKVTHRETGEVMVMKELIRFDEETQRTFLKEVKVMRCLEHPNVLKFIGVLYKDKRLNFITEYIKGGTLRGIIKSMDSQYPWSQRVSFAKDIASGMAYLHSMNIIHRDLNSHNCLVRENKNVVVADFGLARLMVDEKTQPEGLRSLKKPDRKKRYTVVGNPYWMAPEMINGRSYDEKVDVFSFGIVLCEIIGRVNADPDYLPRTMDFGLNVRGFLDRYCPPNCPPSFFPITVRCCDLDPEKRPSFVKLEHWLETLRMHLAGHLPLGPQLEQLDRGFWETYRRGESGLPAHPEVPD

effect of a mutation on the interaction | Variant
disrupting interaction | C393S
